Laboratory results published in patent US20250302974A1, “LECTIN-DRUG CONJUGATES” (UNICHEM LABORATORIES LIMITED, priority 2021, published 2025).

Key:
[1] = test system: bladder cancer cells (T24); experiment: Colocalization study in cell organelles, confocal microscopy, FITC-tagged lectin; type: cell-based; conditions: 100 μg/mL FITC-labelled, 2 h
Protocol: Study was performed to analyze the localization of SEQ ID NO 2 (test item) in cell organelles using Confocal microscopy.
Test Item provided as aqueous solution was tagged with FITC label at Bioklone Biotech Pvt Ltd. Resultant concentration of FITC tagged test Item was 1 mg/mL.
The stock solution of Test Item was diluted in Serum Free Medium (SFM) at single concentration—100 μg/mL.
Cells were plated on a glass coverslip at a density of 0.1×10^6 cells per well.
Following the incubation cells were washed with PBS (3 washes) and fixed using 4% paraformaldehyde for 10 min at RT. After fixation, cells were permeabilized using 0.5% IGEPAL for 10 min at RT (Permeabilization was not done for cells that were stained with Pan-Cadherin). Post permeabilization, cells were blocked using 5% normal goat serum for 1 hour at RT. Post blocking, cells were treated with organelle specific markers for 1.5 hours at RT followed by secondary antibody for 2 hours at RT.
Following antibodies were used for different organelles:
Post incubation, cells were washed using PBST (3 washes) and PBS (3 washes) and stained with DAPI (nucleus stain) for 3 min at RT.
Cells were washed (3 washes) and mounted on a glass slide using Prolong Glass antifade mountant. Imaging was done using Confocal fluorescence microscope (Make: Olympus FV1000) at AIRF, JNU. Images were captured using software FluoView. […]

[2] = test system: PBMC Normal; experiment: Cytotoxic effect by MTT assay, 48 h; conditions: for Percent cytotoxicity wrt control: PBMC, 48 h
Protocol: Cells were treated with Test Items at various concentrations (0.0001 μM-10 μM) for 48 h. The cells corresponding to Positive Control group were treated with Doxorubicin at a concentration ranging from 0.1 μM-100 μM. The Untreated cells were used as Control. After 48 h of incubation, the effect of Test Items on cytotoxicity of cells was determined by MTT assay, the plates were taken out and 20 μl of 5 mg/m1 of MTT 3-(4,5-dimethythiazol-2-yl)-2,5-diphenyl tetrazolium bromide solution was added to all the wells. Cells were incubated for 3 h at 37° C. The supernatant was aspirated. 150 μl of DMSO was added to each well to dissolve formazan crystals. The absorbance of each well was then read at 540 nm using Synergy HT micro plate reader.
The % Cytotoxicity was calculated using the formula:
Where, X=Absorbance of cells treated with Test Item; R=Absorbance of Control cells (Untreated cells maintained in growth medium only).

B1: SEQ ID NO: 2: recombinant variant of the S. rolfsii lectin amino acid sequence (reported as Rec-2 in WO2010/095143) (protein)
chain: TYKITVRVYQTNPDAFFHPVEKTVWKYANGGTWTITDDQHVLTMGGSGTSGTLRFHADNGESFTATFGVHNYKRWCDIVTNLAADETGMVINQQYYSQKNREEARERQLSNYQVKNAKGRNFQIVYTEAEGNDLHANLIIG
colocalization in cell organelles [1]: colocalized in Mitochondria, Endoplasmic reticulum, Golgi bodies and Plasma membrane | localization in the nuclear envelope [1]: no localization was observed | Percent cytotoxicity wrt control ([2]; 0.0001 μM): −7.4% | Percent cytotoxicity wrt control ([2]; 0.001 μM): 19.9% | Percent cytotoxicity wrt control ([2]; 0.01 μM): 24% | Percent cytotoxicity wrt control ([2]; 0.1 μM): 44.9% | Percent cytotoxicity wrt control ([2]; 1 μM): 49.5% | Percent cytotoxicity wrt control ([2]; 10 μM): 43.4% | IC50 ([2]; read-out: IC50 Values, PBMC Normal, after 48 h of treatment): > 10 µM
